Tests used:
[1] = target: HLA-G1 isoform expressed on Expi293F cells (human) (UniProt P17693); experiment: flow cytometry on Expi293F cells transfected with HLA-G1, negative control staining
[2] = target: HLA-G2 isoform expressed on Expi293F cells (human) (UniProt P17693); experiment: flow cytometry on Expi293F cells transfected with HLA-G2, negative control staining
[3] = target: HLA-G4 isoform expressed on Expi293F cells (human) (UniProt P17693); experiment: flow cytometry on Expi293F cells transfected with HLA-G4, negative control staining
[4] = target: HLA-G2 isoform expressed on Expi293F cells (human) (UniProt P17693); experiment: flow cytometry on Expi293F cells transfected with HLA-G2, negative control staining; same profile as the HLA-G2 row of FIG. 5A, drawn larger
[5] = target: HLA-G1 isoform expressed on Expi293F cells (human) (UniProt P17693); experiment: flow cytometry on Expi293F cells transfected with HLA-G1, antibody 10 µg/ml
[6] = target: HLA-G2 isoform expressed on Expi293F cells (human) (UniProt P17693); experiment: flow cytometry on Expi293F cells transfected with HLA-G2, antibody 10 µg/ml
[7] = target: HLA-G3 isoform expressed on Expi293F cells (human) (UniProt P17693); experiment: flow cytometry on Expi293F cells transfected with HLA-G3, antibody 10 µg/ml
[8] = target: HLA-G4 isoform expressed on Expi293F cells (human) (UniProt P17693); experiment: flow cytometry on Expi293F cells transfected with HLA-G4, antibody 10 µg/ml

Substance | % (positive cells) [1] [%] | % (positive cells) [2] [%] | % (positive cells) [3] [%] | % (positive cells) [4] [%] | % of the cells stained [5] [%] | % of the cells stained [6] [%] | % of the cells stained [7] [%] | % of the cells stained [8] [%]
2nd Ab (neg CTRL) (antibody) | 1 | 1 | 2 | 1 | – | – | – | –
commercial Mouse anti-HLA-G antibody 4H84 (Abcam, Mouse IgG1) | – | – | – | – | 81 | 34 | 67 | 16

Source: US20250026836A1
